The series concerns the target T1, NtcA (Synechocystis sp. PCC 6803) (UniProt P33779).
T1 sequence: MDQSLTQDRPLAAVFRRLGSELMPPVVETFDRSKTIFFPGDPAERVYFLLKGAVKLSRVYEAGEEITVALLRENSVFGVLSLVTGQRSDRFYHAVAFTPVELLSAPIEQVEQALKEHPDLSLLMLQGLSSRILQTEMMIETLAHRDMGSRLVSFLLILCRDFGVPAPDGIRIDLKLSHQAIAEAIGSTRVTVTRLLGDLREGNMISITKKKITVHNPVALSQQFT
Kind of series: EMSA. The settings on record: Roche DIG Gel Shift kit buffer (composition and pH not stated), 2 ng DIG-labeled DNA, 15 min at room temperature, native 8% PAGE; 5 mM MgCl2 in 2-oxoglutarate …. Background: A gel shift assay detects complexes by their altered migration in electrophoresis.

As for “TTTGAGCCTAACATTATCCTCCCGTTGCCTTTTTCACCACAGACTTGCCATGGGCGCAATACTCTGTTACATTTATTTACATAGACAACCCTCCCAGCTCGTAATTACAT (double strand) [scpB promoter fragment 110 bp]”, the binding result is given as “binds”.

Regarding “ACTCTGACGTACCCATTGACGGGGTAACTTACTCAAGCTAAAAGGTAAAGAATTGTAAACTAAGTTAATTATCCCAGGAAATCCCATGAG (double strand) [scpE promoter fragment 90 bp]”, the binding entry is listed as “binds”.

The record behind these values is paper PMC6331805.
